# B1: CE115HA000 Y100aF one-arm antibody (antibody, human IgG1, kappa, L234A L235A, N297A, name in Kabat numbering)
# heavy: QVQLVESGGGVVQPGRSLRLSCAASGFTFSNAWMHWVRQAPGKGLEWVAQIKAKSNNYATYYAESVKGRFTISRDDSKNSLYLQMNSLKTEDTAVYYCRYVHYGAYFGVDAWGQGTTVTVSSASTKGPSVFPLAPSSKSTSGGTAALGCLVKDYFPEPVTVSWNSGALTSGVHTFPAVLQSSGLYSLSSVVTVPSSSLGTQTYICNVNHKPSNTKVDKKVEPKSCDKTHTCPPCPAPEAAGGPSVFLFPPKPKDTLMISRTPEVTCVVVDVSHEDPEVKFNWYVDGVEVHNAKTKPREEQYASTYRVVSVLTVLHQDWLNGKEYKCKVSNKALPAPIEKTISKAKGQPREPQVYTLPPSRCELTKNQVSLSCAVKGFYPSDIAVEWESNGQPENNYKTTPPVLDSDGSFFLVSKLTVDKSRWQQGNVFSCSVMHEALHNHYTQKSLSLSPDYKDDDDK
# chain: EPKSSDKTHTCPPCPAPELLGGPSVFLFPPKPKDTLMISRTPEVTCVVVDVSHEDPEVKFNWYVDGVEVHNAKTKPREEQYNSTYRVVSVLTVLHQDWLNGKEYKCKVSNKALPAPIEKTISKAKGQPREPQVCTLPPSRDELTKNQVSLWCLVKGFYPSDIAVEWESNGQPENNYKTTPPVLDSDGSFFLYSKLTVDKSRWQQGNVFSCSVMHEALHNRYTQKSLSLSP
# light: DIVMTQSPLSLPVTPGEPASISCRSSQSLVHSNRNTYLHWYQQKPGQAPRLLIYKVSNRFSGVPDRFSGSGSGTDFTLKISRVEAEDVGVYYCGQGTQVPYTFGQGTKLEIKRTVAAPSVFIFPPSDEQLKSGTASVVCLLNNFYPREAKVQWKVDNALQSGNSQESVTEQDSKDSTYSLSSTLTLSKADYEKHKVYACEVTHQGLSSPVTKSFNRGEC
# B2: CE115HA000 Y100aK one-arm antibody (antibody, human IgG1, kappa, L234A L235A, N297A, name in Kabat numbering)
# heavy: QVQLVESGGGVVQPGRSLRLSCAASGFTFSNAWMHWVRQAPGKGLEWVAQIKAKSNNYATYYAESVKGRFTISRDDSKNSLYLQMNSLKTEDTAVYYCRYVHYGAYKGVDAWGQGTTVTVSSASTKGPSVFPLAPSSKSTSGGTAALGCLVKDYFPEPVTVSWNSGALTSGVHTFPAVLQSSGLYSLSSVVTVPSSSLGTQTYICNVNHKPSNTKVDKKVEPKSCDKTHTCPPCPAPEAAGGPSVFLFPPKPKDTLMISRTPEVTCVVVDVSHEDPEVKFNWYVDGVEVHNAKTKPREEQYASTYRVVSVLTVLHQDWLNGKEYKCKVSNKALPAPIEKTISKAKGQPREPQVYTLPPSRCELTKNQVSLSCAVKGFYPSDIAVEWESNGQPENNYKTTPPVLDSDGSFFLVSKLTVDKSRWQQGNVFSCSVMHEALHNHYTQKSLSLSPDYKDDDDK
# chain: EPKSSDKTHTCPPCPAPELLGGPSVFLFPPKPKDTLMISRTPEVTCVVVDVSHEDPEVKFNWYVDGVEVHNAKTKPREEQYNSTYRVVSVLTVLHQDWLNGKEYKCKVSNKALPAPIEKTISKAKGQPREPQVCTLPPSRDELTKNQVSLWCLVKGFYPSDIAVEWESNGQPENNYKTTPPVLDSDGSFFLYSKLTVDKSRWQQGNVFSCSVMHEALHNRYTQKSLSLSP
# light: DIVMTQSPLSLPVTPGEPASISCRSSQSLVHSNRNTYLHWYQQKPGQAPRLLIYKVSNRFSGVPDRFSGSGSGTDFTLKISRVEAEDVGVYYCGQGTQVPYTFGQGTKLEIKRTVAAPSVFIFPPSDEQLKSGTASVVCLLNNFYPREAKVQWKVDNALQSGNSQESVTEQDSKDSTYSLSSTLTLSKADYEKHKVYACEVTHQGLSSPVTKSFNRGEC
# B3: CE115HA000 Y100aG one-arm antibody (antibody, human IgG1, kappa, L234A L235A, N297A, name in Kabat numbering)
# heavy: QVQLVESGGGVVQPGRSLRLSCAASGFTFSNAWMHWVRQAPGKGLEWVAQIKAKSNNYATYYAESVKGRFTISRDDSKNSLYLQMNSLKTEDTAVYYCRYVHYGAYGGVDAWGQGTTVTVSSASTKGPSVFPLAPSSKSTSGGTAALGCLVKDYFPEPVTVSWNSGALTSGVHTFPAVLQSSGLYSLSSVVTVPSSSLGTQTYICNVNHKPSNTKVDKKVEPKSCDKTHTCPPCPAPEAAGGPSVFLFPPKPKDTLMISRTPEVTCVVVDVSHEDPEVKFNWYVDGVEVHNAKTKPREEQYASTYRVVSVLTVLHQDWLNGKEYKCKVSNKALPAPIEKTISKAKGQPREPQVYTLPPSRCELTKNQVSLSCAVKGFYPSDIAVEWESNGQPENNYKTTPPVLDSDGSFFLVSKLTVDKSRWQQGNVFSCSVMHEALHNHYTQKSLSLSPDYKDDDDK
# chain: EPKSSDKTHTCPPCPAPELLGGPSVFLFPPKPKDTLMISRTPEVTCVVVDVSHEDPEVKFNWYVDGVEVHNAKTKPREEQYNSTYRVVSVLTVLHQDWLNGKEYKCKVSNKALPAPIEKTISKAKGQPREPQVCTLPPSRDELTKNQVSLWCLVKGFYPSDIAVEWESNGQPENNYKTTPPVLDSDGSFFLYSKLTVDKSRWQQGNVFSCSVMHEALHNRYTQKSLSLSP
# light: DIVMTQSPLSLPVTPGEPASISCRSSQSLVHSNRNTYLHWYQQKPGQAPRLLIYKVSNRFSGVPDRFSGSGSGTDFTLKISRVEAEDVGVYYCGQGTQVPYTFGQGTKLEIKRTVAAPSVFIFPPSDEQLKSGTASVVCLLNNFYPREAKVQWKVDNALQSGNSQESVTEQDSKDSTYSLSSTLTLSKADYEKHKVYACEVTHQGLSSPVTKSFNRGEC
# B4: CE115HA000 Y100aS one-arm antibody (antibody, human IgG1, kappa, L234A L235A, N297A, name in Kabat numbering)
# heavy: QVQLVESGGGVVQPGRSLRLSCAASGFTFSNAWMHWVRQAPGKGLEWVAQIKAKSNNYATYYAESVKGRFTISRDDSKNSLYLQMNSLKTEDTAVYYCRYVHYGAYSGVDAWGQGTTVTVSSASTKGPSVFPLAPSSKSTSGGTAALGCLVKDYFPEPVTVSWNSGALTSGVHTFPAVLQSSGLYSLSSVVTVPSSSLGTQTYICNVNHKPSNTKVDKKVEPKSCDKTHTCPPCPAPEAAGGPSVFLFPPKPKDTLMISRTPEVTCVVVDVSHEDPEVKFNWYVDGVEVHNAKTKPREEQYASTYRVVSVLTVLHQDWLNGKEYKCKVSNKALPAPIEKTISKAKGQPREPQVYTLPPSRCELTKNQVSLSCAVKGFYPSDIAVEWESNGQPENNYKTTPPVLDSDGSFFLVSKLTVDKSRWQQGNVFSCSVMHEALHNHYTQKSLSLSPDYKDDDDK
# chain: EPKSSDKTHTCPPCPAPELLGGPSVFLFPPKPKDTLMISRTPEVTCVVVDVSHEDPEVKFNWYVDGVEVHNAKTKPREEQYNSTYRVVSVLTVLHQDWLNGKEYKCKVSNKALPAPIEKTISKAKGQPREPQVCTLPPSRDELTKNQVSLWCLVKGFYPSDIAVEWESNGQPENNYKTTPPVLDSDGSFFLYSKLTVDKSRWQQGNVFSCSVMHEALHNRYTQKSLSLSP
# light: DIVMTQSPLSLPVTPGEPASISCRSSQSLVHSNRNTYLHWYQQKPGQAPRLLIYKVSNRFSGVPDRFSGSGSGTDFTLKISRVEAEDVGVYYCGQGTQVPYTFGQGTKLEIKRTVAAPSVFIFPPSDEQLKSGTASVVCLLNNFYPREAKVQWKVDNALQSGNSQESVTEQDSKDSTYSLSSTLTLSKADYEKHKVYACEVTHQGLSSPVTKSFNRGEC
# B5: CE115HA000 Y100aL one-arm antibody (antibody, human IgG1, kappa, L234A L235A, N297A, name in Kabat numbering)
# heavy: QVQLVESGGGVVQPGRSLRLSCAASGFTFSNAWMHWVRQAPGKGLEWVAQIKAKSNNYATYYAESVKGRFTISRDDSKNSLYLQMNSLKTEDTAVYYCRYVHYGAYLGVDAWGQGTTVTVSSASTKGPSVFPLAPSSKSTSGGTAALGCLVKDYFPEPVTVSWNSGALTSGVHTFPAVLQSSGLYSLSSVVTVPSSSLGTQTYICNVNHKPSNTKVDKKVEPKSCDKTHTCPPCPAPEAAGGPSVFLFPPKPKDTLMISRTPEVTCVVVDVSHEDPEVKFNWYVDGVEVHNAKTKPREEQYASTYRVVSVLTVLHQDWLNGKEYKCKVSNKALPAPIEKTISKAKGQPREPQVYTLPPSRCELTKNQVSLSCAVKGFYPSDIAVEWESNGQPENNYKTTPPVLDSDGSFFLVSKLTVDKSRWQQGNVFSCSVMHEALHNHYTQKSLSLSPDYKDDDDK
# chain: EPKSSDKTHTCPPCPAPELLGGPSVFLFPPKPKDTLMISRTPEVTCVVVDVSHEDPEVKFNWYVDGVEVHNAKTKPREEQYNSTYRVVSVLTVLHQDWLNGKEYKCKVSNKALPAPIEKTISKAKGQPREPQVCTLPPSRDELTKNQVSLWCLVKGFYPSDIAVEWESNGQPENNYKTTPPVLDSDGSFFLYSKLTVDKSRWQQGNVFSCSVMHEALHNRYTQKSLSLSP
# light: DIVMTQSPLSLPVTPGEPASISCRSSQSLVHSNRNTYLHWYQQKPGQAPRLLIYKVSNRFSGVPDRFSGSGSGTDFTLKISRVEAEDVGVYYCGQGTQVPYTFGQGTKLEIKRTVAAPSVFIFPPSDEQLKSGTASVVCLLNNFYPREAKVQWKVDNALQSGNSQESVTEQDSKDSTYSLSSTLTLSKADYEKHKVYACEVTHQGLSSPVTKSFNRGEC
# B6: CE115HA000 Y100aQ one-arm antibody (antibody, human IgG1, kappa, L234A L235A, N297A, name in Kabat numbering)
# heavy: QVQLVESGGGVVQPGRSLRLSCAASGFTFSNAWMHWVRQAPGKGLEWVAQIKAKSNNYATYYAESVKGRFTISRDDSKNSLYLQMNSLKTEDTAVYYCRYVHYGAYQGVDAWGQGTTVTVSSASTKGPSVFPLAPSSKSTSGGTAALGCLVKDYFPEPVTVSWNSGALTSGVHTFPAVLQSSGLYSLSSVVTVPSSSLGTQTYICNVNHKPSNTKVDKKVEPKSCDKTHTCPPCPAPEAAGGPSVFLFPPKPKDTLMISRTPEVTCVVVDVSHEDPEVKFNWYVDGVEVHNAKTKPREEQYASTYRVVSVLTVLHQDWLNGKEYKCKVSNKALPAPIEKTISKAKGQPREPQVYTLPPSRCELTKNQVSLSCAVKGFYPSDIAVEWESNGQPENNYKTTPPVLDSDGSFFLVSKLTVDKSRWQQGNVFSCSVMHEALHNHYTQKSLSLSPDYKDDDDK
# chain: EPKSSDKTHTCPPCPAPELLGGPSVFLFPPKPKDTLMISRTPEVTCVVVDVSHEDPEVKFNWYVDGVEVHNAKTKPREEQYNSTYRVVSVLTVLHQDWLNGKEYKCKVSNKALPAPIEKTISKAKGQPREPQVCTLPPSRDELTKNQVSLWCLVKGFYPSDIAVEWESNGQPENNYKTTPPVLDSDGSFFLYSKLTVDKSRWQQGNVFSCSVMHEALHNRYTQKSLSLSP
# light: DIVMTQSPLSLPVTPGEPASISCRSSQSLVHSNRNTYLHWYQQKPGQAPRLLIYKVSNRFSGVPDRFSGSGSGTDFTLKISRVEAEDVGVYYCGQGTQVPYTFGQGTKLEIKRTVAAPSVFIFPPSDEQLKSGTASVVCLLNNFYPREAKVQWKVDNALQSGNSQESVTEQDSKDSTYSLSSTLTLSKADYEKHKVYACEVTHQGLSSPVTKSFNRGEC
# Biological target: T1, CD3ε homodimer protein (human, UniProt P07766 23-126, limits assumed, sulfo-tag or biotin label in the ECL assays; amine-coupled to the chip in SPR)
# T1 construct: also called human CD3ε homodimer protein; CD3 (CD3ε)
# T1 sequence (P07766 23-126 limits assumed): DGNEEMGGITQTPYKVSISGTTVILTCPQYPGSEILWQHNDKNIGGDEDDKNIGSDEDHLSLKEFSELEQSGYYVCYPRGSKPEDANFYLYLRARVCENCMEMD
# Test: SPR Biacore T200; CD3ε homodimer on CM4 chip;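 further: Single-residue variant antibodies injected as analyte over CD3ε homodimer immobilized by amine coupling, run at 25 °C in HBS-EP+ buffer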
binder,measurement,value
B1,ratio of amounts bound Z=Y/X (altered form / CE115HA000),0.87
B2,ratio of amounts bound Z=Y/X (altered form / CE115HA000),0.9
B3,ratio of amounts bound Z=Y/X (altered form / CE115HA000),1.23
B4,ratio of amounts bound Z=Y/X (altered form / CE115HA000),0.64
B5,ratio of amounts bound Z=Y/X (altered form / CE115HA000),0.48
B6,ratio of amounts bound Z=Y/X (altered form / CE115HA000),0.56
